In IntAct's records for PubMed 19033468:

B1: E3 ubiquitin-protein ligase UBR1 (Saccharomyces cerevisiae), P19812 (parent)
chain: MSVADDDLGSLQGHIRRTLRSIHNLPYFRYTRGPTERADMSRALKEFIYRYLYFVISNSGENLPTLFNAHPKQKLSNPELTVFPDSLEDAVDIDKITSQQTIPFYKIDESRIGDVHKHTGRNCGRKFKIGEPLYRCHECGCDDTCVLCIHCFNPKDHVNHHVCTDICTEFTSGICDCGDEEAWNSPLHCKAEEQENDISEDPATNADIKEEDVWNDSVNIALVELVLAEVFDYFIDVFNQNIEPLPTIQKDITIKLREMTQQGKMYERAQFLNDLKYENDYMFDGTTTAKTSPSNSPEASPSLAKIDPENYTVIIYNDEYHNYSQATTALRQGVPDNVHIDLLTSRIDGEGRAMLKCSQDLSSVLGGFFAVQTNGLSATLTSWSEYLHQETCKYIILWITHCLNIPNSSFQTTFRNMMGKTLCSEYLNATECRDMTPVVEKYFSNKFDKNDPYRYIDLSILADGNQIPLGHHKILPESSTHSLSPLINDVETPTSRTYSNTRLQHILYFDNRYWKRLRKDIQNVIIPTLASSNLYKPIFCQQVVEIFNHITRSVAYMDREPQLTAIRECVVQLFTCPTNAKNIFENQSFLDIVWSIIDIFKEFCKVEGGVLIWQRVQKSNLTKSYSISFKQGLYTVETLLSKVHDPNIPLRPKEIISLLTLCKLFNGAWKIKRKEGEHVLHEDQNFISYLEYTTSIYSIIQTAEKVSEKSKDSIDSKLFLNAIRIISSFLGNRSLTYKLIYDSHEVIKFSVSHERVAFMNPLQTMLSFLIEKVSLKDAYEALEDCSDFLKISDFSLRSVVLCSQIDVGFWVRNGMSVLHQASYYKNNPELGSYSRDIHLNQLAILWERDDIPRIIYNILDRWELLDWFTGEVDYQHTVYEDKISFIIQQFIAFIYQILTERQYFKTFSSLKDRRMDQIKNSIIYNLYMKPLSYSKLLRSVPDYLTEDTTEFDEALEEVSVFVEPKGLADNGVFKLKASLYAKVDPLKLLNLENEFESSATIIKSHLAKDKDEIAKVVLIPQVSIKQLDKDALNLGAFTRNTVFAKVVYKLLQVCLDMEDSTFLNELLHLVHGIFRDDELINGKDSIPEAYLSKPICNLLLSIANAKSDVFSESIVRKADYLLEKMIMKKPNELFESLIASFGNQYVNDYKDKKLRQGVNLQETEKERKRRLAKKHQARLLAKFNNQQTKFMKEHESEFDEQDNDVDMVGEKVYESEDFTCALCQDSSSTDFFVIPAYHDHSPIFRPGNIFNPNEFMPMWDGFYNDDEKQAYIDDDVLEALKENGSCGSRKVFVSCNHHIHHNCFKRYVQKKRFSSNAFICPLCQTFSNCTLPLCQTSKANTGLSLDMFLESELSLDTLSRLFKPFTEENYRTINSIFSLMISQCQGFDKAVRKRANFSHKDVSLILSVHWANTISMLEIASRLEKPYSISFFRSREQKYKTLKNILVCIMLFTFVIGKPSMEFEPYPQQPDTVWNQNQLFQYIVRSALFSPVSLRQTVTEALTTFSRQFLRDFLQGLSDAEQVTKLYAKASKIGDVLKVSEQMLFALRTISDVRMEGLDSESIIYDLAYTFLLKSLLPTIRRCLVFIKVLHELVKDSENETLVINGHEVEEELEFEDTAEFVNKALKMITEKESLVDLLTTQESIVSHPYLENIPYEYCGIIKLIDLSKYLNTYVTQSKEIKLREERSQHMKNADNRLDFKICLTCGVKVHLRADRHEMTKHLNKNCFKPFGAFLMPNSSEVCLHLTQPPSNIFISAPYLNSHGEVGRNAMRRGDLTTLNLKRYEHLNRLWINNEIPGYISRVMGDEFRVTILSNGFLFAFNREPRPRRIPPTDEDDEDMEEGEDGFFTEGNDEMDVDDETGQAANLFGVGAEGIAGGGVRDFFQFFENFRNTLQPQGNGDDDAPQNPPPILQFLGPQFDGATIIRNTNPRNLDEDDSDDNDDSDEREIW
partner: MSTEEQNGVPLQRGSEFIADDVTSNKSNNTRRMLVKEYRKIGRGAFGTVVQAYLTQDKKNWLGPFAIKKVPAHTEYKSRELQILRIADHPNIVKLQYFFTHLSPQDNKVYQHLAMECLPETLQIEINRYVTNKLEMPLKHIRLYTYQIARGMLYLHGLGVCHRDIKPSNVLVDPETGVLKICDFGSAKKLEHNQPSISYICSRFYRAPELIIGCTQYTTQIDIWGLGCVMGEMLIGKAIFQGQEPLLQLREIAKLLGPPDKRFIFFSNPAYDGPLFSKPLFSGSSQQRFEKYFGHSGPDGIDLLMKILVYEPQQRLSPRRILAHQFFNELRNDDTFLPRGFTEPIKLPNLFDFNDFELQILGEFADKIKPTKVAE
B2: Protein kinase MCK1 (Saccharomyces cerevisiae), P21965 (parent)
chain: B1 partner

Variants of: B1
Details: with mck1_yeast MCK1, P21965

| effect of a mutation on the interaction | Variant |
| --- | --- |
| disrupting interaction | Y277F |

Variants of: B2
Details: with ubr1_yeast UBR1, P19812

| effect of a mutation on the interaction | Variant |
| --- | --- |
| disrupting interaction | MSTEEQNGVPLQRGSEFIADDVTSNKSNNTRRMLVKEYRKIGRGAFGTVVQAYLTQDKKNWLGPFAIKKVPAHTEYKSRELQILRIADHPNIVKLQYFFTHLSPQDNKVYQHLAMECLPETLQIEINRYVTNKLEMPLKHIRLYTYQIARGMLYLHGLGVCHRAIKPSNVLVDPETGVLKICDFGSAKKLEHNQPSISYICSRFYRAPELIIGCTQYTTQIDIWGLGCVMGEMLIGKAIFQGQEPLLQLREIAKLLGPPDKRFIFFSNPAYDGPLFSKPLFSGSSQQRFEKYFGHSGPDGIDLLMKILVYEPQQRLSPRRILAHQFFNELRNDDTFLPRGFTEPIKLPNLFDFNDFELQILGEFADKIKPTKVAE [D164A] |
